Experimental data: WO2021221136A1 (dated 2021)

Target: T1, SARS-CoV-2 S1 subunit-Fc (Fc-tagged S1 protein, The Native Antigen Company) (SARS-CoV-2, UniProt P0DTC2 14-674)
T1 construct: domain: S1 subunit
Test: BLI (BLItz), His-tagged CoVHH1 on Ni-NTA sensor, S1-Fc 0-693.1 nM in solution, global fitting

B1: His-tagged CoVHH1 (VHH)
VHH: AEVQLVESGGGQVETGGSLRLSCQASGSTFSDYVMAWFRQRPGKEREFVATISRNGGTTTYGSSVKGRFTISRDNAKSTVYLQMNSLKPEDTAVYYCYAVGGDGDSWGQGTQVTVSSEPKTPKPQSHHHHHH
notes: also called CoVHH1-His; His-tagged VHH
B1 gave a Kd of 7.13 nM, a koff of 0.000114 s⁻¹ and a kon of 16000 M⁻¹ s⁻¹.
